Reference: paper PMC8724117

Molecular target: dual anticoagulant and antiplatelet (APAC) agent (human) (UniProt P02768)
Assay: atomic force microscopy (tapping mode AFM); APAC alone (1:1000 and 1:20,000 dilution of stock) in PBS with 20 mM MgCl2, drop-casted on mica, imaged in air; volume distribution of 340 molecules evaluated with Gwyddion

stoichiometry N: 3
Substance: dual anticoagulant and antiplatelet (APAC) agent (from UniProt P02768 25-609)
